US20100150906A1 (AC IMMUNE S A, published 2010)
Where “and” joins values, the source holds several entries; their conditions need not be identical. Identical values can stand only once. No end group written: not given here.

Experiments:
[1] = biological target: peptide A19 of the second library (aa 12-20, F19 to alanine) (biotinylated (position not given)); assay: ELISA on biotinylated peptides on streptavidin plates
Description: (§1) Epitope mapping of the monoclonal antibody mACI-01-Ab7 C2 was performed by ELISA using three different peptide libraries. One library comprises a total of 33 biotinylated peptides covering the complete amino acid (aa) sequence of Aβ1-42 (produced by Mimotopes and purchased from ANAWA Trading SA), the second library contains biotinylated peptides using peptide 12 (aa12-20 of Aβ) from the first peptide library and substituting each amino acid in the sequence by an alanine (see […] below), and the third library contains biotinylated peptides 13, 14, or 15 (aa 13-21, 14-22 or 15-23 of Aβ) and substituting in each case the last amino acids to an alanine or to a glycine for aa 21 which is already an alanine (see table 5 below). A biotinylated complete Aβ1-42 peptide was used as positive control (Bachem). Epitope mapping was done according to the manufacturer's (Mimotopes) instructions. Briefly, Streptavidin coated plates (NUNC) were blocked with 0.1% BSA in PBS overnight at 4° C. After washing with PBS-0.05% Tween 20, plates were coated for 1 hour at RT with the different peptides from the library, diluted in 0.1% BSA, 0.1% Sodium Azide in PBS to a final concentration of 10 μM. After washing, plates were incubated for 1 hour at RT with the mACI-01-Ab7 C2 antibody or an isotype control mouse IgG2b antibody, diluted to 10 μg/ml in 2% BSA, 0.1% Sodium Azide in PBS. Plates were washed again and incubated with alkaline phosphatase conjugated goat anti mouse IgG for 1 h at RT.

[2] = biological target: T1, peptide A17 of the second library (aa 12-20, L17 to alanine) (also: biotinylated, position not given here); assay: as above
T1 peptide: VHHQKAVFF
Description: as §1

[3] = biological target: peptide A16 of the second library (aa 12-20, K16 to alanine) (biotinylated (position not given)); assay: as above
Description: as §1

[4] = biological target: T2, peptide A20 of the second library (aa 12-20, F20 to alanine) (also: biotinylated, position not given here); assay: as above
T2 peptide: VHHQKLVFA
Description: as §1

[5] = biological target: T3, peptide p15-23 A23 of the third library (D23 to alanine) (also: biotinylated, position not given here); assay: ELISA on third peptide library, antibody at 10 µg/ml
T3 peptide: QKLVFFAEA
Description: as §1

[6] = biological target: T4, peptide p14-22 A22 of the third library (E22 to alanine) (also: biotinylated, position not given here); assay: as above
T4 peptide: HQKLVFFAA
Description: as §1

[7] = biological target: T5, peptide p13-21 G21 of the third library (A21 to glycine) (also: biotinylated, position not given here); assay: as above
T5 peptide: HHQKLVFFG
Description: as §1

[8] = biological target: peptide A18 of the second library (aa 12-20, V18 to alanine) (biotinylated (position not given)); assay: ELISA on alanine-substituted biotinylated peptides, antibody at 10 µg/ml
Description: as §1, with “Plates were washed again and incubated with alkaline phosphatase conjugated goat anti mouse IgG for 1 h at RT.” left out

[9] = biological target: T6, peptide A15 of the second library (aa 12-20, Q15 to alanine) (also: biotinylated, position not given here); assay: as above
T6 peptide: VHHAKLVFF
Description: as §1, with “Plates were washed again and incubated with alkaline phosphatase conjugated goat anti mouse IgG for 1 h at RT.” left out

[10] = biological target: T7, peptide 15 of the first library (aa 15-23 of Aβ) (also: biotinylated, position not given here); assay: ELISA on biotinylated peptides on streptavidin plates, antibody at 10 µg/ml
T7 construct: also called p15-23
T7 peptide: QKLVFFAED
Description: as §1

[11] = biological target: T8, peptide 14 of the first library (aa 14-22 of Aβ) (also: biotinylated, position not given here); assay: as above
T8 construct: also called p14-22
T8 peptide: HQKLVFFAE
Description: as §1

[12] = biological target: T9, peptide 12 of the first library (aa 12-20 of Aβ) (also: biotinylated, position not given here); assay: as above
T9 construct: also called p12-20; Aβ12-20
T9 peptide: VHHQKLVFF
Description: as §1

[13] = biological target: T10, peptide 13 of the first library (aa 13-21 of Aβ) (also: biotinylated, position not given here); assay: as above
T10 construct: also called p13-21; Amyloid beta 13-21
T10 peptide: HHQKLVFFA
Description: as §1

amyloid beta 1-42 fibers = biological target: T11, amyloid beta 1-42 fibers (UniProt P05067 672-713); assay: SPR (Biacore X), fibrillar Aβ1-42 on CM5 chip, 1:1 fit
T11 construct: domain: amyloid beta 1-42; Many copies per fiber; also called Aβ1-42 fibers; fibrillar Aβ1-42
Description: The interactions between AC immune's lead antibody mACI-01-Ab7 C2 (mC2) with amyloid peptide Aβ₁₋₄₂ was studies using surface plasmon resonance. The binding of the mouse antibody mACI-01-Ab7 C2 to either monomers or fibers of Aβ₁₋₄₂ were determined.
All SPR experiments were carried out on a Biacore X instrument (Biacore AB). Reagents for immobilization (EDC, NHS and ethanolamine), sensor chips CM5 and SA as well as running and sample buffer HBS-EP were purchased from Biacore AB. Sodium acetate (10 mM, pH 5.0) was used as coupling buffer to increase coupling yield. Fibrillar Aβ₁₋₄₂ (BAchem) was prepared by adding PBS buffer to Aβ₁₋₄₂ to a final concentration of 3 mg/ml and leaving the vials at 37° C. for 7 days. Fibrillar Aβ₁₋₄₂ was coupled to a CM5 sensor chip containing a surface-bound carboxymethyl dextran matrix. Biotinylated monomeric Aβ₁₋₄₂ (Bachem) was coupled to a Sensor chip SA consisting of carboxymethyl dextran matrix with covalently attached Streptavidin. Typically four or five concentrations of mAb were assayed by serial dilutions using running buffer. Injections were performed starting from the lowest concentration and were passed over both fc 1 and 2 at a flow rate of 30 μL'min for 3 min. Flow cell 2 was underivatised and responses were subtracted from fc 1 to correct for instrument noise and bulk refractive changes. After injection was finished, the surfaces were washed immediately with running buffer for 5 min. To remove remaining bound antibody from the Aβ₁₋₄₂ fibrils, surface regeneration was performed by injecting pulses of 10 mM NaOH. Kinetic analysis was performed using algorithms for numerical integration and global analysis using BIAevaluation 3.0. The curves obtained for injections of analyte at different concentrations were overlaid and the baselines adjusted to zero. For curve fitting, all data were fit simultaneously to a 1:1 homogeneous complex.

T11 sequence (P05067 672-713 limits assumed): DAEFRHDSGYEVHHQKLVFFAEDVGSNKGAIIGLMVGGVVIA

binding result [1]: no binding (tested: 10 µg/ml)
binding result [2]: no binding (tested: 10 µg/ml)
binding result [3]: no binding (tested: 10 µg/ml)
binding result [4]: no binding (tested: 10 µg/ml)
binding result [5]: binds
binding result [6]: binds
binding result [7]: binds
binding result [8]: binds
binding result [9]: binds
binding result [10]: binds
binding result [11]: binds
binding result [12]: binds
binding result [13]: binds
Kd (amyloid beta 1-42 fibers): 45.8 nM and 41 nM and 17.3 nM
koff (amyloid beta 1-42 fibers): 0.00149 s⁻¹ and 0.00099 s⁻¹ and 0.000966 s⁻¹
kon (amyloid beta 1-42 fibers): 24000 M⁻¹ s⁻¹ and 56000 M⁻¹ s⁻¹ and 32600 M⁻¹ s⁻¹
B1: mouse monoclonal antibody ACI-01-Ab7C2 (antibody, V domains shown)
VH: EVQLVESGGGLVQPGGSLKLSCAASGFTFSSYGMSWVRQTPDKRLELVASINSNGGSTYYPDSVKGRFTISRDNAKNTLYLQMSSLKSEDTAMYYCASGDYWGQGSTLTVSS
VL: DVVMTQTPLSLPVSLGDQASISCRSSQSLVYSNGDTYLHWYLQKPGQSPKLLIYKVSNRFSGVPDRFSGSGSGTDFTLKISRVEAEDLGVYFCSQSTHVPWTFGGGTKLEIK
notes: also called mC2; mACI-01-Ab7 C2
